In US6998239 (CHEMOCENTRYX, dated 2006):

T1: human CCX CKR with N-terminal Flag epitope, stably expressed on HEK293 cells (human, UniProt Q9NPB9 1-350)
T1 construct: also called HEK293-CCX CKR cells
T1 sequence: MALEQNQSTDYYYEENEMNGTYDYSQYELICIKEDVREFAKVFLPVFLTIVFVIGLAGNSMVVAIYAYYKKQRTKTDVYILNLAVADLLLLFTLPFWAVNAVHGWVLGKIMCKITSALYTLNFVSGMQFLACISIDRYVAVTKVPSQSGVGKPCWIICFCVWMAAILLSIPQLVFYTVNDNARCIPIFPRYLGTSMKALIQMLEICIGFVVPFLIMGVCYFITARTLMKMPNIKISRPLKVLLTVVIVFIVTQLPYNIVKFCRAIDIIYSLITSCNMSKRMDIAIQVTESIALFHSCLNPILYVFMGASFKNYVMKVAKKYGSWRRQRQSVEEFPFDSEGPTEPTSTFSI

B1: murine ELC (ligand, UniProt O70460 26-108, looked up)
chain: GANDAEDCCLSVTQRPIPGNIVKAFRYLLNEDGCRVPAVVFTTLRGYQLCAPPDQPWVDRIIRRLKKSSAKNKGNSTRRSPVS
B2: human SLC (secondary lymphoid-tissue chemokine) (ligand, UniProt O00585 24-134, looked up)
chain: SDGGAQDCCLKYSQRKIPAKVVRSYRKQEPSLGCSIPAILFLPRKRSQAELCADPKELWVQQLMQHLDKTPSPQKPAQGCRKDRGASKTGKKGKGSKGCKRTERSQTPKGP
notes: also called 6Ckine
B3: human TECK (thymus expressed chemokine) (ligand, UniProt O15444 24-150, looked up)
chain: QGVFEDCCLAYHYPIGWAVLRRAWTYRIQEVSGSCNLPAAIFYLPKRHRKVCGNPKSREVQRAMKLLDARNKVFAKLHHNTQTFQAGPHAVKKLSSGNSKLSSSKFSNPISSSKRNVSLLISANSGL
modifications: 125I label where used as radioligand
B4: mMIP-1gamma (murine macrophage inflammatory protein 1 gamma) (ligand, UniProt P51670 22-122, looked up)
chain: QITHATETKEVQSSLKAQQGLEIEMFHMGFQDSSDCCLSYNSRIQCSRFIGYFPTSGGCTRPGIIFISKRGFQVCANPSDRRVQRCIERLEQNSQPRTYKQ
notes: also called mMIP-1γ; CCF18
B5: murine TECK (ligand, UniProt O35903 24-144, looked up)
chain: QGAFEDCCLGYQHRIKWNVLRHARNYHQQEVSGSCNLRAVRFYFRQKVVCGNPEDMNVKRAMRILTARKRLVHWKSASDSQTERKKSNHMKSKVENPNSTSVRSATLGHPRMVMMPRKTNN
B6: murine CTACK (ligand, UniProt Q9Z1X0 26-120, looked up)
chain: LPLPSSTSCCTQLYRQPLPSRLLRRIVHMELQEADGDCHLQAVVLHLARRSVCVHPQNRSLARWLERQGKRLQGTVPSLNLVLQKKMYSHPQQQN
notes: also called mCTACK; CCL27
B7: human ELC (EBI1 ligand chemokine) (ligand, UniProt Q99731 22-98, looked up)
chain: GTNDAEDCCLSVTQKPIPGYIVRNFHYLLIKDGCRVPAVVFTTLRGRQLCAPPDQPWVERIIQRLQRTSAKMKRRSS
modifications: 125I label where used as radioligand
notes: also called MIP-3beta; MIP3beta

Columns and labels:
[1] = target: T1, human CCX CKR with N-terminal Flag …; assay: displacement of 125I-ELC or 125I-TECK from CCX CKR transfectants, 200 nM cold chemokine
[2] = target: T1, human CCX CKR with N-terminal Flag …; assay: radioligand binding competition on CCX CKR stable transfectants, Scatchard transformation
[3] = target: T1, human CCX CKR with N-terminal Flag …; assay: radioligand binding competition on CCX CKR stable transfectants (similar experiments)

Binder | binding result [1] | further results
B1 | binds | 
B2 |  | binding result [2]: binds
B3 | binds | 
B4 | binds | 
B5 | binds | 
B6 |  | Kd [3]: ~9 nM
B7 |  | binding result [2]: binds
